Experiments:
[1] = target: T1, EBNA2_(381–389) peptide with an additional Gly-Tyr dipeptide at the C-terminus (NH2-[…]-CONH2) (Epstein-Barr virus, strain B95-8, C-terminal amide (CONH2)); test: ITC
[2] = target: T1, EBNA2_(381–389) peptide with an …; test: ITC; N fixed to 1

Binder	Kd [1] [µM]	Kd [2] [µM]
QTKKKQWCYNCEEEAMAHCCWNTSYCSIKCQQEHWHAEHKRTCRRKR (domain or fragment) [BS69_(MYND) Y532A]	64.5	
QTKKKQWCYNCEEEAMYHCCWNTSYCSIKCQQEHWHAEHKRTCRAKR (domain or fragment) [BS69_(MYND) R560A]		~279

— paper PMC4742278 (2016)
